Several values for one entry are separate records, joined by “and”; a condition that tells them apart may be missing. Equal values may be shown once.
Tests used:
[1] = molecular target: SARS-CoV-2 spike glycoprotein on authentic virus (Munich strain) (SARS-CoV-2 (Munich strain), UniProt P0DTC2 14-1273); assay: cell-based or functional assay
[2] = molecular target: SARS-CoV-2 spike glycoprotein (Wuhan-Hu-1 strain) on pseudotyped virus particles (SARS-CoV-2 (Wuhan-Hu-1 strain), UniProt P0DTC2 14-1273); assay: cell-based or functional assay
[3] = molecular target: T1, SARS-CoV-2 spike receptor-binding domain (RBD) (SARS-CoV-2, UniProt P0DTC2 319-541); assay: indirect ELISA, RBD coated on plate, 4PL fit
[4] = molecular target: T2, SARS-CoV-2 (Wuhan-Hu-1 strain) spike glycoprotein on pseudotyped virus particles (SARS-CoV-2, UniProt P0DTC2 14-1273); assay: cell-based or functional assay
[5] = molecular target: T3, SARS-CoV-2 Munich strain spike glycoprotein on authentic virus (SARS-CoV-2); assay: cell-based or functional assay
[6] = molecular target: T2, SARS-CoV-2 (Wuhan-Hu-1 strain) spike …; assay: cell-based or functional assay; remark: listed apart in the source
[7] = molecular target: T3, SARS-CoV-2 Munich strain spike …; assay: cell-based or functional assay; remark: listed apart in the source
[8] = molecular target: SARS-CoV-2 spike glycoprotein on authentic SARS-CoV-2 (Munich strain, SARS-CoV-2/München-1.1/2020/929) (SARS-CoV-2, UniProt P0DTC2 14-1273); assay: cell-based or functional assay
[9] = molecular target: SARS-CoV-2 spike glycoprotein on pseudotyped SARS-CoV-2 (Wuhan-Hu-1 strain) particles (SARS-CoV-2, UniProt P0DTC2 14-1273); assay: cell-based or functional assay
[10] = molecular target: SARS-CoV-2 spike receptor-binding domain (RBD), recombinant (SARS-CoV-2, UniProt P0DTC2 319-541); assay: SPR (Biacore 3000), RBD immobilized on the chip, Nb as analyte, 1:1 Langmuir fit
[11] = molecular target: SARS-CoV RBD (SARS-CoV, UniProt P59594 306-527)
[12] = molecular target: T1, SARS-CoV-2 spike receptor-binding …; assay: SPR (Biacore 3000), RBD immobilised, Nb as analyte, 1:1 Langmuir fit

B1: Nb20 (VHH)
VHH: QVQLVESGGGLVQAGGSLRLSCAVSGAGAHRVGWFRRAPGKEREFVAAIGASGGMTNYLDSVKGRFTISRDNAKNTIYLQMNSLKPQDTAVYYCAARDIETAEYIYWGQGTQVTVSS
Q: What does the source list for B1?
A: Authentic virus PRNT IC50 [1]: 0.0422 nM; Pseudo-neutralization (GFP) [2]: < 0.5 nM; Pseudo-neutralization IC50 (Luciferase) [2]: 0.114 nM

B2: Nb11 (VHH)
VHH: HVQLVESGGGLVQAGGSLRLSCAVSGASAERVGWFRRAPGKEREFVAAIGANGGSTNYLDSVKGRFTISRDNAKNTVYLQMNSLKPQDTAVYYCAARNLETFDYTYWGRGTQVTVSS
Q: Which results are given for B2?
A: Authentic virus PRNT IC50 [1]: 0.78 nM; Pseudo-neutralization IC50 (Luciferase) [2]: 1 nM; ELISA affinity [3]: 0.39 nM

B3: Nb21 (VHH)
VHH: QVQLVESGGGLVQAGGSLRLSCAVSGLGAHRVGWFRRAPGKEREFVAAIGANGGNTNYLDSVKGRFTISRDNAKNTIYLQMNSLKPQDTAVYYCAARDIETAEYTYWGQGTQVTVSS
Q: How did the “Authentic virus PRNT IC50” value [1] turn out when B3 was run?
A: 0.0448 nM

Q: What about the “Pseudo-neutralization (GFP)” value [2] of the same binder?
A: < 0.5 nM

Q: And the “Pseudo-neutralization IC50 (Luciferase)” value [2]?
A: 0.038 nM

B4: Nb78 (VHH)
VHH: QVQLVESGGGLVQAGGSLRLSCAISGASANRVGWFRRAPGKEREFVAAIGASGGMTNYLDSVKGRFTISRDNAKNTVYLQMNSLKPQDTAVYYCAARNIETAEYTYWGQGTQVTVSS
Q: What does the source list for B4?
A: Authentic virus PRNT IC50 [1]: 0.766 nM; Pseudo-neutralization IC50 (Luciferase) [2]: 0.509 nM; ELISA affinity [3]: 0.61 nM

B5: Nb16 (VHH)
VHH: DVQLVESGGGLVQAGESLRLSCAASGDMFSSNAMAWYRQAPGKQRELVASITSGGNTNYADSVKGRFTISRDNAKNTVYLQMDSLKPEDTAVYYCNGVAYDYSWGRPRNFWGQGTQVTVSS
Q: Which results are given for B5?
A: Authentic virus PRNT IC50 [1]: 3.16 nM; Pseudo-neutralization IC50 (Luciferase) [2]: 1.57 nM; ELISA affinity [3]: 0.37 nM

B6: Nb17 (VHH)
VHH: HVQLVESGGGLVQAGGSLRLSCAASGSIFSSNAMSWYRQAPGKQRELVASITSGGNADYADSVKGRFTISRDKNTVYPEMSSLKPADTAVYYCHAVGQEASAYAPRAYWGQGTQVTVSS
Q: How did the “Authentic virus PRNT IC50” value [1] turn out when B6 was run?
A: 1.5 nM

Q: What about the “Pseudo-neutralization IC50 (Luciferase)” value [2] of the same binder?
A: 1.1 nM

B7: Nb21 (VHH)
VHH: QVQLVESGGGLVQAGGSLRLSCAVSGLGAHRVGWFRRAPGKEREFVAAIGANGGNTNYLDSVKGRFTISRDNAKNTIYLQMNSLKPQDTAVYYCAARDIETAEYTYWGQGTQVTVSS
Q: Which “IC50, pseudovirus assay” value [4] does the source give for B7 here?
A: 0.7 ng/ml and 0.045 nM

Q: And the “IC50, SARS-CoV-2 PRNT” value [5]?
A: 0.021 nM

Q: And the “Pseudo-neut IC50 Luciferase” value [6]?
A: 0.0495 nM

Q: And the “Pseudo-neutralization (GFP)” value [6]?
A: < 0.5 nM

Q: And the “Authentic virus PRNT IC50” value [7]?
A: 0.022 nM

B8: Nb34 (VHH)
VHH: DVQLVESGGGLVQAGGSLRLSCAASGFTFSNYVMYWGRQAPGKGREWVSGIDSDGSDTAYASSVKGRFTISRDNAKNTLYLQMNNLKPEDTALYYCVKSKDPYGSPWTRSEFDDYWGQGTQVTVSS
Q: For B8, which “Authentic virus PRNT IC50” value [1] is on record?
A: 1.12 nM

Q: What about the “Pseudo-neutralization IC50 (Luciferase)” value [2] of the same binder?
A: 2 nM

Q: What about the ELISA affinity [3] of the same binder?
A: 0.47 nM

B9: Nb34 (VHH)
VHH: DVQLVESGGGLVQAGGSLRLSCAASGFTFSNYVMYWGRQAPGKGREWVSGIDSDGSDTAYASSVKGRFTISRDNAKNTLYLQMNNLKPEDTALYYCVKSKDPYGSPWTRSEFDDYWGQGTQVTVSS
Q: What does the source list for B9?
A: neutralization of SARS-CoV-2 (assay not stated) [4]: < 150 ng/mL; Pseudo-neut IC50 Luciferase [6]: 1.99 nM; Authentic virus PRNT IC50 [7]: 1.12 nM

B10: Nb89 (VHH)
VHH: HVQLVESGGGLVQAGGSLRLSCAASGGTFTTFRMAWFRQTPGKEREFVAASSWGFVNYADPVKGRFTISRDNAKNTVYLEMSSLKTEDTAVYYCAARNPGTGQYDYWGQGTQVTVSS
Q: How did the “Authentic virus PRNT IC50” value [8] turn out when B10 was run?
A: 0.154 nM

Q: What about the “Pseudo-neutralization (GFP)” value [9] of the same binder?
A: < 0.5 nM

Q: And the “Pseudo-neutralization IC50 (Luciferase)” value [9]?
A: 0.129 nM

Q: What about the Kd [10] of the same binder?
A: 0.108 nM

Q: And the koff [10]?
A: 0.000624 s⁻¹

B11: Nb105 (VHH)
VHH: HVQLVESGGGLVQAGGSLRLSCAVSGRTFSTYGMAWFRQAPGKERDFVATITRSGETTLYADSVKGRFTISRDNAKNTVYLQMNSLKIEDTAVYYCAVRRDSSWGYSRDLFEYDYWGQGTQVTVSS
Q: B11 was tested. Which “Authentic virus PRNT IC50” value [8] did it give?
A: 5.1 nM

Q: And the “Pseudo-neutralization IC50 (Luciferase)” value [9]?
A: 5 nM

B12: Nb89 (VHH)
VHH: HVQLVESGGGLVQAGGSLRLSCAASGGTFTTFRMAWFRQTPGKEREFVAASSWGFVNYADPVKGRFTISRDNAKNTVYLEMSSLKTEDTAVYYCAARNPGTGQYDYWGQGTQVTVSS
Q: Which results are given for B12?
A: IC50, pseudovirus assay [4]: 2 ng/ml and 0.129 nM; Pseudo-neut IC50 Luciferase [6]: 0.133 nM; Pseudo-neutralization (GFP) [6]: < 0.5 nM; Authentic virus PRNT IC50 [7]: 0.154 nM

B13: Nb95 (VHH)
VHH: QVQLVESGGGLVQAGGSLRLSCAASGRTFSSYSMGWFRQAQGKEREFVATINGNGRDTYYTNSVKGRFTISRDDATNTVYLQMNSLKPEDTAIYYCAADKDVYYGYTSFPNEYEYWGQGTQVTVSS
Q: Which “Authentic virus PRNT IC50” value [8] does the source give for B13 here?
A: 5.11 nM

Q: And the “Pseudo-neutralization IC50 (Luciferase)” value [9]?
A: 10 nM

B14: Nb95 (VHH)
VHH: QVQLVESGGGLVQAGGSLRLSCAASGRTFSSYSMGWFRQAQGKEREFVATINGNGRDTYYTNSVKGRFTISRDDATNTVYLQMNSLKPEDTAIYYCAADKDVYYGYTSFPNEYEYWGQGTQVTVSS
Q: What does the source list for B14?
A: neutralization of SARS-CoV-2 (assay not stated) [4]: < 150 ng/mL; IC50 [11]: 31.6 nM; Pseudo-neut IC50 Luciferase [6]: 10 nM; Authentic virus PRNT IC50 [7]: 5.11 nM

B15: Nb105 (VHH)
VHH: HVQLVESGGGLVQAGGSLRLSCAVSGRTFSTYGMAWFRQAPGKERDFVATITRSGETTLYADSVKGRFTISRDNAKNTVYLQMNSLKIEDTAVYYCAVRRDSSWGYSRDLFEYDYWGQGTQVTVSS
Q: How did the “neutralization of SARS-CoV-2 (assay not stated)” value [4] turn out when B15 was run?
A: < 150 ng/mL

Q: What about the IC50 [11] of the same binder?
A: 3.76 nM

Q: And the “Pseudo-neut IC50 Luciferase” value [6]?
A: 5.11 nM

Q: And the “Authentic virus PRNT IC50” value [7]?
A: 5.07 nM

B16: Nb9 (VHH)
VHH: HVQLVESGGGLVQTGGSLRLSCAFSGYTFSTFPTAWFRQAPGKEREFVAGIRWNGGSRDYTEYADFVKGRFTISRDNAKNMIYLQMISLKPEDTALYYCAASHGVVDGTSVNGYRYWGQGTQVTVSS
Q: For B16, which “Authentic virus PRNT IC50” value [1] is on record?
A: 1.72 nM

Q: What about the “Pseudo-neutralization IC50 (Luciferase)” value [2] of the same binder?
A: 1.5 nM

Q: What about the ELISA affinity [3] of the same binder?
A: 0.89 nM

B17: Nb89 (VHH)
VHH: HVQLVESGGGLVQAGGSLRLSCAASGGTFTTFRMAWFRQTPGKEREFVAASSWGFVNYADPVKGRFTISRDNAKNTVYLEMSSLKTEDTAVYYCAARNPGTGQYDYWGQGTQVTVSS
Q: How did the ELISA affinity [3] turn out when B17 was run?
A: 1.09 nM

Q: What about the kon [12] of the same binder?
A: 5.78e+06 M⁻¹ s⁻¹
